Measured values from patent US12187807B2, “Antibody molecules to C5AR1 and uses thereof” (Visterra, Inc., priority 2020, dated 2025).

T1: C5aR1 mutants (N-terminus, ECL1, ECL2, ECL3) (Homo sapiens, UniProt P21730, K279N/Y11A)
T1 sequence (P21730 with tags, fused parts or gaps Y11A/K279N): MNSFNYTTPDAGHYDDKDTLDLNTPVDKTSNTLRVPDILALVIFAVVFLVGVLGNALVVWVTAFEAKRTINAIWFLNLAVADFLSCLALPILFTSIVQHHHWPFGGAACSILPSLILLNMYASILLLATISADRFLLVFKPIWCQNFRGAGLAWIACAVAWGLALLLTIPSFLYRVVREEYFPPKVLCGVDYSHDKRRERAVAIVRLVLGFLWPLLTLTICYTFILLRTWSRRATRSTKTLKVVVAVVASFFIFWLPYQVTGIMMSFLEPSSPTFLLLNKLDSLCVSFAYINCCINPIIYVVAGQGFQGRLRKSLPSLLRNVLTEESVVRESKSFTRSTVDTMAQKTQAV

T2: C5aR1 (human neutrophils) (Homo sapiens, UniProt P21730)
T2 construct: neutrophils isolated from whole blood; host or cells: human neutrophils (cryopreserved, or isolated from whole blood)
T2 sequence (P21730 1-350): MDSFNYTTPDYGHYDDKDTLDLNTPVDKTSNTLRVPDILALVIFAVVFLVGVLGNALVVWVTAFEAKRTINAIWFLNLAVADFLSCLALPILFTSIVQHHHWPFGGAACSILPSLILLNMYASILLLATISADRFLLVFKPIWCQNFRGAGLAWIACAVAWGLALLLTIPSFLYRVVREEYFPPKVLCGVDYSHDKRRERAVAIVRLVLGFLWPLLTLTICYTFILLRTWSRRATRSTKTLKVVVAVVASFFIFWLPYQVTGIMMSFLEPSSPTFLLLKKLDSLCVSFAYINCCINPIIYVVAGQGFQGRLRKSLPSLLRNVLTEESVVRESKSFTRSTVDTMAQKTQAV


How the values were obtained:
[1] = target: T1, C5aR1 mutants (N-terminus, ECL1, ECL2, ECL3); test: Alanine scanning / mutagenesis epitope mapping of C5aR1; assay type: binding; settings: Y11A
In short: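 C5aR1 variants carried single alanine substitutions or introduced N-glycosylation sites across the N-terminus, ECL1, ECL2 and ECL3. Binding of individual monoclonal antibody clones to each mutant was assessed to map core epitopes. Sulfation of tyrosines 11 and 14 was considered for the site I binders.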

[2] = target: T2, C5aR1 (human neutrophils); test: C5a induced chemotaxis (transwell), human neutrophils; assay type: cell-based; settings: 1, 10, or 100 nM antagonist, C5a 10^−6 to 10^−9.5 M
From the text: One of the primary mechanisms by which neutrophils migrate to the site of inflammation is by chemotaxis induced by a C5a/C5adesArg gradient is detected by C5aR1 signaling. Anti-C5aR1 antibodies were thus assessed in a chemotaxis assay for their ability to block C5a induced migration of neutrophils. The assay involved cell migration in a double chamber well separated by filters. The cells and inhibitors were applied into the upper chamber and the lower chamber was filled with the chemoattractant, causing the cells to migrate to the lower chamber. The inhibition activity was evaluated by counting the migrated cell numbers. Specifically, a titration of C5a was added to the bottom chamber a 96 transwell plate. Cells expressing human C5aR1 (C5aR1-U937 cells or human neutrophils) were incubated with or without antagonist and then seeded into the top chamber of the transwell plate. The cells were incubated for 2 hours. Cells that migrated to the bottom chamber were quantified using the CyQUANT cell proliferation kit following the manufacturer's protocol. […]
Anti-C5aR1 antibodies were assessed in a chemotaxis assay for their ability to block C5a induced migration of neutrophils. […] The inhibition activity was evaluated by counting the migrated cell numbers. […] Cells that migrated to the bottom chamber were quantified using the CyQUANT cell proliferation kit following the manufacturer's protocol. […]

| inhibition of human neutrophil chemotaxis [2] | Molecule | binding to C5aR1 mutant [1] |
| --- | --- | --- |
| – | clone 583: anti-C5aR1 Site I antibody; VH SEQ ID NO: 536, VL SEQ ID NO: 595 (antibody, V domains shown) VH: EVQLVESGGGLVKPGGSLKLSCAASGFTFNAYAMSWVRQTPEKRLEWVASISTGGNTYCPDSVKDRFTVSRDNVRNILYLQMSSLRSEDTAMYYCTRGYQRFSGFAYWGQGTLVTVS VL: DVVMTQTPLSPPVSLGYQASISCRSSQSLVHSNGNTYLNWYLQKPGQSPKLLIYKVSNRLSGVPDRFSGSGSGTDFTLKISRVETEDLGVYFCSQSTHVPYTFGGGTKLEIK | abolishes binding |
| strongest effects | clone 329: anti-C5aR1 Site II antibody; VH SEQ ID NO: 492, VL SEQ ID NO: 552 (antibody, V domains shown) VH: QVQLQQSGAELTKPGASVKLSCKASGYTFTNYWMHWVKQRPGQGLEWIGYLNPSSGYTKYNQKFKDKATLTADKSSSTAYMQLNSLTYEDSAVYYCTRSGGDNYGNPYYFDRWGQGTTVTVSS VL: DVVMTQTPLSLTVSLGDQASISCRSSQSLVHSNGNTYLHWYLQKPGQSPKFLIYKVSNRFSGVPDRFSGSGSGTDFRLKISRVEAEDLGVYFCSQSTLVPLTFGAGTKLEIK | – |
